Test results reported in paper PMC3212568.

Target: β2m lacking the N-terminal six residues of the mature protein (human)
Assay: SEC; analytical size exclusion chromatography of 1 mg/ml protein in phosphate buffered saline pH 7.3 at 25°C; monomer and dimer peaks

“β2m lacking the N-terminal six residues of the mature protein (domain or fragment)” was tested, and the percent dimeric was 4%.
